Assay: yeast display, Sf9 membrane polyspecificity reagent, FACS + sequencing; frameworks hold sequencing errors
How it was run: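 Galactose-induced (36–48 hours) yeast carrying a synthetic nanobody display library were exposed to 10% biotinylated, detergent-solubilized Sf9 membrane reagent at 4 °C for 1 hour. FACS followed streptavidin microbead enrichment, using low and high (top ~1%) gates for expression (anti-HA) and reagent binding (streptavidin). Colony PCR, MiSeq 2 × 250 sequencing and CDR-length filtering followed. Labels for polyreactivity reflect the gate of origin.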

Sequence	polyreactivity (PSR sort gate)
QVQLVESGGGLVQAGGSLRLSCAASGRTFDAYAMGWYRQAPGKERELVAAISSGGSTNYADSVKGRFTISRDHAKNTVYLQKNSLKPEDTAVYYCAAEYIQYLFYSVRVAYDYWGQGTQVTVSS	low polyreactivity
QVQLVESGGGLVQAGGSLRLSCAASGRTFDAYAMGWYRQAPGKERELVATITSGGGTYYADSVKGRFTISRDNAKNTVYLQMNSLKPEDTAVYYCNISYVVSRKYDYWGQGTQVTVSS	low polyreactivity
QVQLVESGGGLVQAGGSLRLSCAASGRTFDDNAMGWYRPAPGKARELVAAISTTGSTNYADSVKGRFTISRDNAQTTVYLQMNSLKPEDTAFYYCAADSTPYVRSGNYDYWGQGTQVTVSS	low polyreactivity
QVQLVESGGGLVQAGGSLRLSCAASGRTFDDNAMGWYRQAPGKERELVAAINFTGGSTYYADSVKGRFTISRDNAQNTVSLQMNSLKPEDTAVYYCAVRPGYYCGYWPRFGYWGQGSQVTVSS	low polyreactivity
QVQLVESGGGLVQAGGSLRLSCAASGRTFDDYPMGWYRQAPGKDSELVAAITRRGGSTYYADSVKGRFTISRDNAKNTVYLQMNSLNPEDTAVYYCAADLFFKARGYDYWGQGTQVTVST	high polyreactivity
QVQLVESGGGLVQAGGSLRLSCAASGRTFDGYAMGWYRPAPGKERELVAAISWGGGSTYYADSVKGRFTISRDNAKNTVYLQMNSLKPEDTAVYYCNAYTYYYGNDYWGQGTQVNVSS	high polyreactivity
QVQLVESGGGLVQAGGSLRLSCAASGRTFDHNAMGWYRQAPGKERELVAAINSSGGRTYYADSVKGRFTISRDNAQNTVYLQMNSLQPEDTAVYYCATVNVRGPPYDYWGQGTQVTVSS	high polyreactivity
QVQLVESGGGLVQAGGSLRLSCAASGRTFDIYAMGWYRQAPGKARELVAAISIAGSTNYADSVKGRFTISRDNAKNTVYLQMNSLKPEDTAVYYCAAAKPKKSRGSAYEYWGQGTLVTVSS	high polyreactivity
QVQLVESGGGLVQAGGSLRLSCAASGRTFDKYAMGWYRQAPGKERELVAAITRSGGSTYYADSVKGRFTISRDNAKNTVYLQMNSLKPEDTAVYYCAKRYWSYRWKYDYWGQGTQVTVSS	high polyreactivity
QVQLVESGGGLVQAGGSLRLSCAASGRTFDLYAMGWYRQAPGKERELVARITNIDDSTYYADSVKGRFTISRDNAKNTVYLQMNSLKPEDTAVYYCNAVVTKYAKSRFLYYYWGQGTQVTVSS	high polyreactivity
QVQLVESGGGLVQAGGSLRLSCAASGRTFDPNVMGWYRQAPGKERELVAAISRGGSTYYADSVKGRFTISRDNAKNTVYLQMNSLKPEDTAVYYCAATHYGHSISYWFDYWGQGTQVTVSS	high polyreactivity
QVQLVESGGGLVQAGGSLRLSCAASGRTFDRDAKGWYRQAPGKERELVAVIRFIGGSTYYAYSVKGRFTISRDNAKNTVFLQMNSLKQEDTAVYDCATRGPIWGQRYYKGYYWGQGTQVTVSS	low polyreactivity
QVQLVESGGGLVQAGGSLRLSCAASGRTFDRNTMGWYRQAPGKQRELVAAISSSGGSTYYADSVKGRFTISRDNAKNTVYLQMNSLKPEDTAVYYCAARQSPNRWMGYWGQGTQVTVSS	high polyreactivity
QVQLVESGGGLVQAGGSLRLSCAASGRTFDTNAMGWYRQAPGKERELVAGITIGGSTNYADSVKGRFTISRDNAKNTVYLQMNILKPEDTAVYYCAADYGSVRGYAADYYEPEYDYWGQGTQVTVSS	low polyreactivity
QVQLVESGGGLVQAGGSLRLSCAASGRTFDVYTMGWYRQAPGKERELVAAINGGGSTYYADSVKGRFTISRDNAKNTVYSQMNSLKPEDTAVYYCAAKFRAGRSSYYWGQGTQVTVSS	high polyreactivity
QVQLVESGGGLVQAGGSLRLSCAASGRTFDYNAMGWYRQAPGKERELVAAISSSGGSTYYADSVKGRFTISRDNAKNTVYLQMNSLKAEDTAVYYCATLYPRKSIYYYWGQGTQVTVSS	high polyreactivity

Sequence	polyreactivity (PSR sort gate)
QVQLVESGGGLVQAGGSLRLSCAASGRTFDYYVMGWYRQAPGKERELVAAISRRGGSTYYADSVKGRFTISRDNAKNTVYLQMNSLKPEDTAVYYCAAQYYYAREDYWGQGTQVTVSS	high polyreactivity
QVQLVESGGGLVQAGGSLRLSCAASGRTFEGNAMGWYRQAPGKERELVAAISTSGGRTYYADSVKGRFTISRDNAKNTVYLQMNSLKPDDTAVYYCAVDHYSSYEYWGQGTQVTVSS	low polyreactivity
QVQLVESGGGLVQAGGSLRLSCAASGRTFEGNAMGWYRQAPGKERELVAAITSGGRTNYADSVKGRFTISRDNAKNTVYLQMNSLKPEDTAVYYCAVETRDRSTYFPGQAYDYWGQGTQVTVSS	low polyreactivity
QVQLVESGGGLVQAGGSLRLSCAASGRTFERNAMGWYRPAPGKERELVAAITWSGVSTYYADSVKGRFTISRDNAKNTVYLQMNSLKPEDTAVYYCAADWDWRFHRMNYWGQGTQVTVSS	low polyreactivity
QVQLVESGGGLVQAGGSLRLSCAASGRTFEVYTMGWYRQAPGKERELVARIRRGASTNYADSVKGRFTISRDNAKNTVYLQMNSLKPEDTAVYYCNARYTAVAVRWTWPYETQADDYWGQGTQVTVSS	low polyreactivity
QVQLVESGGGLVQAGGSLRLSCAASGRTFEYYAMGWYRPAPGKERELVAAITWSVGSTYYADSVKGRFTISRDNAKNTVYLQMNSLKPEDTAGYYCAVDVVYTWPFPVEYYYWGQGTQVTVSS	high polyreactivity
QVQLVESGGGLVQAGGSLRLSCAASGRTFEYYAMGWYRQAPGKERELVAAITYSGDSTYYADSVKGRFTISRDNAKNTVYLQMNSLKPEDTAVYYCAADWSSLKDDYWGQGTQVTVSS	low polyreactivity
QVQLVESGGGLVQAGGSLRLSCAASGRTFFDNAMGWYRQAPGKEREFVAAISYNGGSTYFADSVKGRFTISRDNAKNTVYLQMNSLKPEDTAVYYCAADPNYGYDYWGQGTQVTVSS	low polyreactivity
QVQLVESGGGLVQAGGSLRLSCAASGRTFFENAMGWYRQAPGKEREFVAAISYNGGSTYYADSVKGRFTISRDNAKNTVYLQMNSLKTEDTAVYYCAADPNYGYDYWGQGTQVTVSS	low polyreactivity
QVQLVESGGGLVQAGGSLRLSCAASGRTFFFYAMGWYRQAPGKERELVASITWSGGTRTYYADSVKGRFTISRDNAKNTVYLQMNSLKPEDTAFYYCAATDSSYWFNRYGGKYYYWGQGTQVTVSS	high polyreactivity
QVQLVESGGGLVQAGGSLRLSCAASGRTFFGNAKGWYRQAPGKERELVASISTRGGSTYYADSVKGRFTISRDNAKNTVYLQMNSLKPEDTAVYYCAKRGRDRRIYGYWGQGTQVTVSS	high polyreactivity
QVQLVESGGGLVQAGGSLRLSCAASGRTFFGYTMGWYRHAPGKERELVAVISKRGGRTYYADSVKGRFTISRDNAKNTVYLQMNSLKPEDTAVYYCNRVKDSNVSQAMEYWGQGTQVTVSS	high polyreactivity
QVQLVESGGGLVQAGGSLRLSCAASGRTFFINAMGWYRPAPGKERELVAAIRVGAGSTYYADSVKGRVTISRDNAKYTVYLQMNSLKPEDTAVYYCAKRTATSTRKYDYWGQGTQVTVSS	high polyreactivity
QVQLVESGGGLVQAGGSLRLSCAASGRTFFINTMGWYRQAPGKERELVAAITWSGGSTYYADSVKGRFTISRDNAKNTVYLQMNSLKPEDTAVYYCAAVYVYRPDIIYVEVAYDYWGQGTQVTVSS	low polyreactivity
QVQLVESGGGLVQAGGSLRLSCAASGRTFFIYAMGWYRQAPGKERELVAAITRGGTNYADSVKGRFTISRDNAKNTVYLQMNSLKPEDTAVYYCYTYTYAGYNYWGQGTQVTVSS	high polyreactivity
QVQLVESGGGLVQAGGSLRLSCAASGRTFFPYGMGWYRQAPGKERELVATISWSGGSTHYADSVKGRFTISRDNAKNTVYLQMNSLKPEDTAVYYCAAGNSLYWYNSGNYWGQGTQVTVSS	low polyreactivity

— the nanobody polyreactivity screen of Harvey et al. (2022)
